B1: HDV Ribozyme (parent)
chain: GGCCGGCAUGGUCCCAGCCUCCUCGCUGGCGCCGGCUGGGCAACAUUCCGAGGGGACCGUCCCCUCGGUAAUGGCGAAUGGGACCCA

Variants of: B1
Assay: self-cleavage, relative activity (ratio to wild type); higher = more cleavage; co-transcriptional

In order of rising self-cleavage:
1. GGCCUGCAUGGUCCCAGCCUCCUCGCUGGCGCCGGCUGGGCAACACUCCGAGGGGACCGUCCCCUCGGUAAUGGCGAAUGGGACCCA  0
2. GGCCGGCAUCGGCCCAGCCUCCUCGCUGGCGCCGGCUGGGCAACAUUCCGAGGGGACCGUCCCCUCGGUAAUGGCGAAUGGGACCCA  0
3. GGCCGGGAUGGUCCCAUCCUCCUCGCUGGCGCCGGCUGGGCAACAUUCCGAGGGGACCGUCCCCUCGGUAAUGGCGAAUGGGACCCA  0
4. GGCCGGCAUGGUCCCCGCCUCCUCGCUGGCGCCGGGUGGGCAACAUUCCGAGGGGACCGUCCCCUCGGUAAUGGCGAAUGGGACCCA  0
5. GGCCGGCAUGGUCCCAGCCUCCUCGCUAGCGCCUGCUGGGCAACAUUCCGAGGGGACCGUCCCCUCGGUAAUGGCGAAUGGGACCCA  0.0277
6. GGCAGGCAUGGUCCCAUCCUCCUCGCUGGCGCCGGCUGGGCAACAUUCCGAGGGGACCGUCCCCUCGGUAAUGGCGAAUGGGACCCA  0.0292
7. GGCCGGCAUGGUCCCAGUCUCCUCGCUGGCGCCGGCUGAGCAACAUUCCGAGGGGACCGUCCCCUCGGUAAUGGCGAAUGGGACCCA  0.0302
8. GGCCGGCAUGGUCCCAGCCUCCUCGCUAGCGCCGGCUGGGCAACAUUCCGAGGGGACCGUCCCCGCGGUAAUGGCGAAUGGGACCCA  0.0386
9. GGCCGGCAUGGUCCCAGCCUCCUCGCUUGCGCCGGCUGGGCCACAUUCCGAGGGGACCGUCCCCUCGGUAAUGGCGAAUGGGACCCA  0.0415
10. GGCCGGCAUGGUCCCAGCCUCCUCGCUGGCGCCGGCUGGGCAACAUUCCGAGGGGACCGUCCCCUCGGUAAUGGGGAUUGGGACCCA  0.0462
11. GGCCGGCAUGGUCCCAGCCUCCUCCCUGGCGCCGGCUGGGCAACAUUCCGAGGGGACCGUCCCCUCGGUAAUGGCGAAUGGGAACCA  0.0489
12. GCCCGGCAUGGUCCCAGCCUCCUCGCUGGGGCCGGCUGGGCAACAUUCCGAGGGGACCGUCCCCUCGGUAAUGGCGAAUGGGACCCA  0.0594
13. GGCCGGCAUGGUCCCAGCCUCCUCGCUGGGGCCGGCUCGGCAACAUUCCGAGGGGACCGUCCCCUCGGUAAUGGCGAAUGGGACCCA  0.0594
14. GGCCGCCAUGGUCCCAGCCUCCUCGCUGGGGCCGGCUGGGCAACAUUCCGAGGGGACCGUCCCCUCGGUAAUGGCGAAUGGGACCCA  0.0615
15. GGCCGGCAUGGUCCCAGCCUCCUCGCUCGCGCCGGCUGGGCAACAUUCCGAGGGGACCUUCCCCUCGGUAAUGGCGAAUGGGACCCA  0.0678
16. GGUCGGCAUGGUCCCAGACUCCUCGCUGGCGCCGGCUGGGCAACAUUCCGAGGGGACCGUCCCCUCGGUAAUGGCGAAUGGGACCCA  0.0782
17. GGCCGGCAUGGUCCCAGCCUCCUCGCUGGCGACGGCUGGGCAACAUUCCGAGGGGACCGUCCCCUCGGUAAUCGCGAAUGGGACCCA  0.0906
18. GGCCGGGAUGGUCACAGCCUCCUCGCUGGCGCCGGCUGGGCAACAUUCCGAGGGGACCGUCCCCUCGGUAAUGGCGAAUGGGACCCA  0.0923
19. GGCCGGCAUGGUCCCAAGCUCCUCGCUGGCGCCGGCUGGGCAACAUUCCGAGGGGACCGUCCCCUCGGUAAUGGCGAAUGGGACCCA  0.095
20. GGCCGGCAUGGUCCCAGCCUCCUCACUGGCGCCGGCUGGGCAACAUCCCGAGGGGACCGUCCCCUCGGUAAUGGCGAAUGGGACCCA  0.107
21. GGCCGGCAUGGUCCCAGCCUCCUCGCUGGCGCCGGCUUGGCAACAUACCGAGGGGACCGUCCCCUCGGUAAUGGCGAAUGGGACCCA  0.109
22. GGCCGGCAUGGUCCCAGCCUCCUCGCUGGCGCCGGCUCAGCAACAUUCCGAGGGGACCGUCCCCUCGGUAAUGGCGAAUGGGACCCA  0.113
23. GGCCGGCAUGGUCCCAGACUGCUCGCUGGCGCCGGCUGGGCAACAUUCCGAGGGGACCGUCCCCUCGGUAAUGGCGAAUGGGACCCA  0.131
24. GGCCGGCAUGGUCCCAGCCUCCUGGCUGGCGCCGGCUGGGCAACAUUCCGAGGGGACCGUCCCGUCGGUAAUGGCGAAUGGGACCCA  0.131
25. GGCCAGCAUGGUCCCAGCCUCCUCGCUGGCGCCGGCUGGGCAACAUUCCGAGGGGACCGUCCCCUCGGUAAUGGCGAAUGGGACCAA  0.132
26. GGCCGGCAUGGUCCCAGCCUCCGCACUGGCGCCGGCUGGGCAACAUUCCGAGGGGACCGUCCCCUCGGUAAUGGCGAAUGGGACCCA  0.142
27. GGCCGGCAUGGUCCCAGCCUCCUCGCUGGGGCCGGCUGGGCAACAUUCCGAGGGGACCGCCCCCUCGGUAAUGGCGAAUGGGACCCA  0.147
28. GGCCGGCAUGGUCCCAGCCUCCUUGCUGGCGCCGGCUGGGCAACAUUCCGAGGGGACCGUCCCCUCGGUAAUGGCGAAUGAGACCCA  0.185
29. GGCCGGCAUGGUCCCAGCCUCCUCCCUGGCGCCGGCUGGGCAACAUUCCGAGGGGACCGUACCCUCGGUAAUGGCGAAUGGGACCCA  0.201
30. GGCCGGCAUGGUCCCAGCCUCCUCGCUGGCGCCGGCUGGGCAACAUUCCGAGGGGACCGUCCCCUCGGUAAUGGCGACUGGUACCCA  0.212
31. GGCCGGCAUGGUCCCAGCCUCCUCGCUGGAGCCGGCUGGGCAACAUUCCGAGGGGACCGUCCCCUCGGUAAUAGCGAAUGGGACCCA  0.237
32. GGCCGGCAUGGUCCCAGCCUCCUCGCUGGCGCCGGCUGGGCAACAUUCCGAGGGGACCGUCCCCUCGGUAAUGGCGAAUGGGCCCGA  0.254
33. GGCCGGUAUGGUCCAAGCCUCCUCGCUGGCGCCGGCUGGGCAACAUUCCGAGGGGACCGUCCCCUCGGUAAUGGCGAAUGGGACCCA  0.256
34. GGCCGGCAUGGUCCCAGCCUCCUCGCUGGCGCCGGCUGGGCAACAUUCCGAUGGGACCGUCCCCUCGGUAAUGGCGAAUGCGACCCA  0.298
35. GGCCGGCAUGGUCCCAGCCUCCUCGCUGGCGCCGGCUGGGGAACAUUCCGAGGGGACCGUCCCCUCGGUAAUGGCGAAGGGGACCCA  0.302
36. GGCCGGAAUGGUCCCAGCCUCCUCGCUGGCGCCGGCUGGGCAACAUGCCGAGGGGACCGUCCCCUCGGUAAUGGCGAAUGGGACCCA  0.317
37. GGCCGGCAUGGUCCCAGCCUCCUCGCUGGCGCCGGCUGGGCAGCAUUCGGAGGGGACCGUCCCCUCGGUAAUGGCGAAUGGGACCCA  0.344
38. GGCCGGCAUGGCCCCAGCCUCCUCGCUGGCGCCGGCUGGGCAACAUUCCAAGGGGACCGUCCCCUCGGUAAUGGCGAAUGGGACCCA  0.359
39. GGCCGGCAUGGUCCCAGCCUCCUCGCUGGCGCCGGCUGGGCAACAUUCCGAGGGGACCGUCCCCUCGGUAAUGGCGAAUGGAUCCCA  0.376
40. GGCCGGCAUGGUCCCAGCCUCCUCGCUGGCUCCGGCUGGGCAACAUACCGAGGGGACCGUCCCCUCGGUAAUGGCGAAUGGGACCCA  0.406
41. GGCCGGCAUGGUCCCAGCCUCCUCGCUGGCUCCGGCUGGGCAACAUUCCGAAGGGACCGUCCCCUCGGUAAUGGCGAAUGGGACCCA  0.431
42. GGCCGGCAUGGUCCCAGCCUCCUCGCUGGCACCGGCUGGGCAACAUUCCGAGGGGACCGUCCCCUCGGUAUUGGCGAAUGGGACCCA  0.447
43. GGCCGGCAUGGUCCCAGCCUCCUCGCUGGCGCCGGCUGGGGAACAUUCCGAGGGGACCGUCCCCUCUGUAAUGGCGAAUGGGACCCA  0.48
44. GGCCGGCAUGGUCCCAGCCUCCUCGCUGGCGCCGGCUGGGCAACAUUCCGAGGGGACCGUCCCCUCGGUACUGGCGAAUGGGACGCA  0.554
45. GGCCGGCAUGGUCCCAGCCUCCUCGCUGGCGCCGGCUGGGCAGCAUUCCGAGGGGACCGUCCCCUAGGUAAUGGCGAAUGGGACCCA  0.554
46. GGCCGGCAUGGUCCCAGCCUCCUCGCCGGCGCCGGCUGGGCAACAUUCCGAGGGGACCGUCCCCUCGGUAAUGGCGAAUGGGCCCCA  0.554
47. GGCCGGCAUGGUCCCAGCCUCCUCGCUGGCGCCGGCUGGGCAACAUUCCGAGGGGACGGUCCCCUCGGUAAUGGCGAAAGGGACCCA  0.571
48. GGCCGGCAUGGUCCCAGCCUCCUCGCUGGCGCCGGCUGGGCGACAUUCCGAGGGGACCGUCCCCUCGGUAAUGGCGAAAGGGACCCA  0.573
49. GGCCGGCAUGGUCCCAGCCUCCUCGCUGGCGCCGGCUGGGCAACAUUCCGAGGGGACCGUCCCCUCGGUAACGGCGAAUGGGACCCU  0.595
50. GGCCGGCAUGGUCCCAGCCUCCUCGCUGGCGCCGGCUGGGCGACAUUCCGAGGGGACCGCCCCCUCGGUAAUGGCGAAUGGGACCCA  0.617
51. GGUCGGCAUGGUCCCAGCCUCCUCGCUGGCGCCGGCUGGGCAACAUUCGGAGGGGACCGUCCCCUCGGUAAUGGCGAAUGGGACCCA  0.68
52. GGCCGGCAUGGUCCCAGCCUCCUCGCUGGCGCCGGCUGGGCAACAUUCCGAGGGGACCGUCCCCUCGGUAAUGGCGAAUGGGACAGA  0.791
53. GGCCGGCAUGGUCCCAGCCUCCUCGCUGGCGCCGGCUGGGCAAAAUUCCGAGGUGACCGUCCCCUCGGUAAUGGCGAAUGGGACCCA  0.794
54. GGCCGGCAUGGUCCCAGCCUCCUCGCUGGCGCCGGCUGGGCAACAUUCCGAGGGGACCGUCCCCUCGGUACUGGCGAAUGGGACCAA  0.831
55. GGCCGGCAUGGUCCCAGCCUCCUCGCUGGCGCCGGCUGGGCAACAUUCCGAGAGGACCGUCCCCUCGGUAAUGGCGAAUGGGACUCA  0.872
56. GGCCGGCAUGGUCCCAGCCUCCUCGAUGGCGCCGGCUGGGCAACAUUCCGAGGGGACCGUCCCCUCGGUAAUGGCGAAUGGGACCGA  0.888
57. GGCCGGCAUGGUCCCAGCCUCCUCGCUGGCGCCGGCUGGGCAACAUUCCGACGGGACCGUCCGCUCGGUAAUGGCGAAUGGGACCCA  0.892
58. GGCCGGCAUGGUCCCAGCCUCCUCGCUGGCGCCGGCUGGGCAACAUUCCGAGGGGACACUCCCCUCGGUAAUGGCGAAUGGGACCCA  0.904
59. GGCCGGCAUGGUCCCAGCCUCCUCGCUGGCGCCGGCUGGGCAACAUUCCGACGGGACCGUCCCCUCGGUAAUGGCGAAAGGGACCCA  0.906
60. GGCCGGCAUGGUCCCAGCCUCCUCGCUGGCGCCGGCUGGGCAACAUCCCGACGGGACCGUCCCCUCGGUAAUGGCGAAUGGGACCCA  0.917
61. GGCCGGCAUGGUCCCAGCCUCCUCGGUGGCGCCGGCUGGGAAACAUUCCGAGGGGACCGUCCCCUCGGUAAUGGCGAAUGGGACCCA  1.04
62. GGCCGGCAUGGUCCCAGCCUCCUCGUUGGCGCCGGCUGGGCAACAUUCCGAGCGGACCGUCCCCUCGGUAAUGGCGAAUGGGACCCA  1.04
63. GGCCGGCAUGGUCCCAGCCUCCUCGCUGGCGCCGGCUGGGCAACAUUCCGAGUGGAGCGUCCCCUCGGUAAUGGCGAAUGGGACCCA  1.1
64. GGCCGGCAUGGUCCCAGCCUCCUCGCUGGCGCCGGCUGGGCAACAUUCCGAGGGGACCGUCUCCUCAGUAAUGGCGAAUGGGACCCA  1.12
